# Measurements reported in US20110008376A1.
# How the values were obtained:
# [1] = biological target: nOVA (untreated ovalbumin, 1 mg/ml in PBS) (chicken) (UniProt P01012); assay: ELISA, immobilized OVA form, normalized to nOVA
# [2] = biological target: dH5-0 (hemagglutinin 5 of H5N1 strain A/Vietnam/1203/04 as supplied by Protein Sciences) (influenza A virus H5N1 strain A/Vietnam/1203/04); assay: ELISA, immobilized H5 form, normalized to cdH5-0; average of two measurements
# [3] = biological target: cdH5-0 (dH5-0 supernatant after 10 min at 16,000-18,000*g) (influenza A virus H5N1 strain A/Vietnam/1203/04); assay: ELISA, immobilized H5 form, normalized to cdH5-0
# [4] = biological target: dH5-III (misfolded H5, about 16 h at 47.5 C) (influenza A virus H5N1 strain A/Vietnam/1203/04); assay: ELISA, immobilized H5 form, normalized to cdH5-0
# [5] = biological target: dH5-I (misfolded H5, heat cycling at pH 7) (influenza A virus H5N1 strain A/Vietnam/1203/04); assay: ELISA, immobilized H5 form, normalized to cdH5-0
# [6] = biological target: fdH5-0 (ultrafiltrated dH5-0, flow-through of a 1,000 kDa cut-off filter) (influenza A virus H5N1 strain A/Vietnam/1203/04); assay: ELISA, immobilized H5 form, normalized to cdH5-0
# [7] = biological target: dH5-II (misfolded H5, heat cycling at pH 2) (influenza A virus H5N1 strain A/Vietnam/1203/04); assay: ELISA, immobilized H5 form, normalized to cdH5-0
# [8] = biological target: cdH5-0 (dH5-0 supernatant after 10 min at 16,000-18,000*g) (influenza A virus H5N1 strain A/Vietnam/1203/04); assay: ELISA, immobilized H5 form, excess epsilon-amino caproic acid
# [9] = biological target: dH5-0 (hemagglutinin 5 of H5N1 strain A/Vietnam/1203/04 as supplied by Protein Sciences) (influenza A virus H5N1 strain A/Vietnam/1203/04); assay: as above
# [10] = biological target: fdH5-0 (ultrafiltrated dH5-0, flow-through of a 1,000 kDa cut-off filter) (influenza A virus H5N1 strain A/Vietnam/1203/04); assay: as above
# [11] = biological target: dH5-II (misfolded H5, heat cycling at pH 2) (influenza A virus H5N1 strain A/Vietnam/1203/04); assay: as above
# UniProt P01012, sequence (P01012 2-386 limits assumed): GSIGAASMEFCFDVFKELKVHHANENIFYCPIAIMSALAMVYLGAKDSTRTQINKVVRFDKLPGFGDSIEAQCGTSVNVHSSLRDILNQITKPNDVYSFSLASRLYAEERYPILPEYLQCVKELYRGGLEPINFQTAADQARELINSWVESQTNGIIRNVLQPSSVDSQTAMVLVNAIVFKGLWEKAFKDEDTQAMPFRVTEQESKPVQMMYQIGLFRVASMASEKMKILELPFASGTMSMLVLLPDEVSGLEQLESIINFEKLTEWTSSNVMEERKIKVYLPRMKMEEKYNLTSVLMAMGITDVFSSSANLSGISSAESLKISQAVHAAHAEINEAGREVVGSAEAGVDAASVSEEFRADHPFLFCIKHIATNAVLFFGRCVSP
Substance,"Normalized affinity, kD (%) [1] [%]","Normalized affinity, kD (%) [2] [%]","Normalized affinity, kD (%) [3] [%]","Normalized affinity, kD (%) [4] [%]","Normalized affinity, kD (%) [5] [%]","Normalized affinity, kD (%) [6] [%]","Normalized affinity, kD (%) [7] [%]",Bmax [8],Kd [8] [nM],Bmax [9],Kd [9] [nM],Bmax [10],Kd [10] [nM],Bmax [11],Kd [11] [nM]
fourth and fifth finger domain of fibronectin (Fn F4-5) (from UniProt P02751 183-274),100,103,100,6,0,69,88,–,–,–,–,–,–,–,–
tissue type plasminogen activator (tPA) (from UniProt P00750 36-562) (enzyme),–,–,–,–,–,–,–,0.36,102,0.32,96,0.37,342,0.07,19
